# Target: intracellular product of the soybean Rps1b gene (soybean)
# Assay: cell-based or functional assay
substance,measurement,value
"mature Avr1b (lacking the secretory leader), Phytophthora sojae",Killing in presence of Rps1b (ratio of GUS spots),0.22

# — patent US20090011510A1
